Experimental data as given in US20260209368A1 (PROMETHEUS BIOSCIENCES, published 2026).
Positions count from the first letter of the chain named. Values belong to the binder of their own block, whether it stands above or below them.

Key:
[1] = biological target: T1, recombinant cynomolgus monkey TL1A protein (cynomolgus monkey, UniProt G7PRK8 72-251); test: ELISA on recombinant TL1A protein, antibody titrated, A450 nm read
T1 construct: also called cynomolgus TL1A; Cyno TL1A
T1 sequence: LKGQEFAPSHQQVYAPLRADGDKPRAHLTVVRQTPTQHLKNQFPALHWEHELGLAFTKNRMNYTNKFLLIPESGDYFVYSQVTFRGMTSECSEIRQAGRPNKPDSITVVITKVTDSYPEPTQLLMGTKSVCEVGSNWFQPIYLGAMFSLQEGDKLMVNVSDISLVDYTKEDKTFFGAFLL
Method: ELISA for each protein was performed at least three times. The data from a representative experiment are shown and are mean±SD. Abbreviations: A=absorbance, Ab=antibody, Cyno=cynomolgus, nm-nanometer, nM-nanomolar. […] Samples were assayed in triplicate, on two separate occasions. Data presented are the mean TL1A concentrations of three animals per group+SD. Samples collected from animals administered isotype control antibody are shown in circles, samples collected from animals administered anti-TL1A are shown in the triangles and square.

[2] = biological target: T1, recombinant cynomolgus monkey TL1A …; test: cell-based or functional assay
[3] = biological target: T2, recombinant human TL1A protein (human, UniProt O95150 72-251); test: cell-based or functional assay
T2 sequence (looked up): T1 sequence with L39F, V78I

[4] = biological target: T3, TL1A in human blood (human, UniProt O95150 72-251, limits assumed); test: cell-based or functional assay
T3 sequence (looked up): T1 sequence with L39F, V78I

EC50 (read off the curve) [1]: ~0.4 nM | IC50 of inhibition of TL1A-induced caspase activation in TF-1 cells [2]: 0.59 nM | IC50 of inhibition of the IFN-γ response in monkey whole blood stimulated with immune complex, IL-12 and IL-18 [2]: 1.54 nM | IC50 of inhibition of TL1A-induced caspase activation in TF-1 cells [3]: 0.27 nM
B1: anti-TL1A antibody A219 (antibody, V domains shown)
VH: QVQLVQSGAEVKKPGASVKVSCKASGFDIQDTYMHWVKQRPGQGLEWMGRIDPASGHTKYDPKFQVRVTITRDTSTSTVYLELSSLRSEDTAVYYCARSGGLPDVWGQGTTVTVSS
VL: EIVLTQSPGTLSLSPGERATLSCRASSSVSYMYWYQQKPGQAPRPLIYATSNLASGIPDRFSGSGSGTDFTLTISRLEPEDFAVYYCQQWEGNPRTFGGGTKLEIK
notes: Humanized monoclonal IgG1 with a kappa light chain, designed to abolish effector functions

% Inhibition at 1 nM Ig; inhibition of interferon gamma release in human blood [4]: 51.3% | % Inhibition at 10 nM Ig; inhibition of interferon gamma release in human blood [4]: 72.4%
B2: A147 (antibody, V domains shown)
VH: B1 VH with D52E, T58I, V66G, I70M, L81M, V105W
VL: B1 VL

% Inhibition at 1 nM Ig; inhibition of interferon gamma release in human blood [4]: 36.9% | % Inhibition at 10 nM Ig; inhibition of interferon gamma release in human blood [4]: 63.2%
B3: A220 (antibody, V domains shown)
VH: B1 VH with I70M, V79A
VL: B1 VL with L46W

% Inhibition at 1 nM Ig; inhibition of interferon gamma release in human blood [4]: 59.8% | % Inhibition at 10 nM Ig; inhibition of interferon gamma release in human blood [4]: 75.2%
B4: A219 (antibody, V domains shown)
VH: B1 VH
VL: B1 VL

% Inhibition at 1 nM Ig; inhibition of interferon gamma release in human blood [4]: 46.8% | % Inhibition at 10 nM Ig; inhibition of interferon gamma release in human blood [4]: 71.2%
B5: A212 (antibody, V domains shown)
VH: B1 VH with K38R, M48I, V68A, R72T, V79A
VL: B1 VL

% Inhibition at 1 nM Ig; inhibition of interferon gamma release in human blood [4]: 46% | % Inhibition at 10 nM Ig; inhibition of interferon gamma release in human blood [4]: 72.2%
B6: A217 (antibody, V domains shown)
VH: B1 VH with L81M
VL: B1 VL

% Inhibition at 1 nM Ig; inhibition of interferon gamma release in human blood [4]: 48.6% | % Inhibition at 10 nM Ig; inhibition of interferon gamma release in human blood [4]: 69.8%
B7: A213 (antibody, V domains shown)
VH: B1 VH with K38R, R72T, L81M
VL: B1 VL
